Here are results for one variant from IntAct's records for PubMed 19666511.

Sequences and labels used below:
B1: GTP-binding protein YPT32/YPT11 (Saccharomyces cerevisiae), P51996 (parent)
chain: MSNEDYGYDYDYLFKIVLIGDSGVGKSNLLSRFTTDEFNIESKSTIGVEFATRTIEVENKKIKAQIWDTAGQERYRAITSAYYRGAVGALIVYDISKSSSYENCNHWLTELRENADDNVAVGLIGNKSDLAHLRAVPTDEAKNFAMENQMLFTETSALNSDNVDKAFRELIVAIFQMVSKHQVDLSGSGTNNMGSNGAPKGPTISLTPAPKEDKKKKSSNCC
partner: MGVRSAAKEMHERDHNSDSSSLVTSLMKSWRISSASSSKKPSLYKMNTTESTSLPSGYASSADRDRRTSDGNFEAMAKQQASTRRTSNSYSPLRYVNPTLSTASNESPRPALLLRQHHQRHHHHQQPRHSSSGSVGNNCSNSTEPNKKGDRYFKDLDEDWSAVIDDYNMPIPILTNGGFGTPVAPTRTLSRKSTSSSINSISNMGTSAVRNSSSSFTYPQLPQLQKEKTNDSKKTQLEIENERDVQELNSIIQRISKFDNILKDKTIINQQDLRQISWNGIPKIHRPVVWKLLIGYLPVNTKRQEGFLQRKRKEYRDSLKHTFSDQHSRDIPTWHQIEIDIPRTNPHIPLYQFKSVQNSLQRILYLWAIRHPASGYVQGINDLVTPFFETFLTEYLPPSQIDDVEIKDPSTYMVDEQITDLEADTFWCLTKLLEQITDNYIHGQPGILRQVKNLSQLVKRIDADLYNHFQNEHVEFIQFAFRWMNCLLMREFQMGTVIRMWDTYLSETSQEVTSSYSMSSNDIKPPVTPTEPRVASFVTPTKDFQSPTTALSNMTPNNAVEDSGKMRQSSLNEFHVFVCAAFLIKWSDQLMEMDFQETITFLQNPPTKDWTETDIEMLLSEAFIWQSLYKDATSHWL

In this experiment the parent is B1. As to conditions: with gyp1_yeast GYP1, Q08484.
As to S27N, the “effect of a mutation on the interaction” value was “disrupting interaction”.
